In patent US20260049279A1 (published 2026):

Molecular target: T1, ALK peptide on H-2Dd (mouse)
T1 peptide: PGPGRVAKI
Test: multimer staining

binding result: recognises
B1: Clonotype_1 (Table 1) (TCR, V domains shown)
Valpha: QQKVQQSPESLSVPEGGMASFNCTSSDRNFQYFWWYRQHSGEGPKALMSIFSDGDKKEGRFTAHLNKASLHVSLHIRDSQPSDSALYFCAASEHGNNRIFFGDGTQLVVKP
Vbeta: ETAVFQTPNYHVTQVGNEVSFNCKQTLGHDTMYWYKQDSKKLLKIMFSYNNKQLIVNETVPRRFSPQSSDKAHLNLRIKSVEPEDSAVYLCASSQDWDEQYFGPGTRLTVL
